B1: recombinant Pfs38 (6-Cys domain, aa 153–328) (domain or fragment)
chain: KIPGCDFNADYKESTAITTFSNMSPRRVKVCDVYPKSGDFISLMCPSDYSIKPDGCFSNVYVKRYPNEEVKEEDRFNLNRKWDASKYNVVSIETVLKMNMITQGDKYSIFSKLPDVKDQVDFTCICQSNDEQDNLMMNVYINNTSYLTNNTRSIGVNKHSFSNSEIFERIEREEIS
notes: Pfs38, Plasmodium falciparum 6-Cys protein; 6-Cys domain aa 153-328, amplified from a codon-optimised synthetic gene (aa 22-328) and cloned in pET28b between NcoI and XhoI; Cloning in pET28b between NcoI and XhoI would give a C-terminal His6 (surmised); The forward primer adds a few residues (Met-Gly-Ser) before the insert (surmised from the primer); also called rPfs38

Assay [1] addresses T1, recombinant PfMSP-1_(65) (aa 1052–1664) (Plasmodium falciparum 3D7, UniProt Q8I0U8 1052-1664).
T1 construct: Merozoite surface protein 1 (MSP-1), Plasmodium falciparum 3D7, aa 1052-1664, amplified from 3D7 cDNA and cloned in pET28b (NcoI/XhoI); Cloning in pET28b between NcoI and XhoI would give a C-terminal His6 (surmised); also called rPfMSP-1_(65); source: E. coli BL21, soluble, purified (Ni-NTA)
T1 sequence: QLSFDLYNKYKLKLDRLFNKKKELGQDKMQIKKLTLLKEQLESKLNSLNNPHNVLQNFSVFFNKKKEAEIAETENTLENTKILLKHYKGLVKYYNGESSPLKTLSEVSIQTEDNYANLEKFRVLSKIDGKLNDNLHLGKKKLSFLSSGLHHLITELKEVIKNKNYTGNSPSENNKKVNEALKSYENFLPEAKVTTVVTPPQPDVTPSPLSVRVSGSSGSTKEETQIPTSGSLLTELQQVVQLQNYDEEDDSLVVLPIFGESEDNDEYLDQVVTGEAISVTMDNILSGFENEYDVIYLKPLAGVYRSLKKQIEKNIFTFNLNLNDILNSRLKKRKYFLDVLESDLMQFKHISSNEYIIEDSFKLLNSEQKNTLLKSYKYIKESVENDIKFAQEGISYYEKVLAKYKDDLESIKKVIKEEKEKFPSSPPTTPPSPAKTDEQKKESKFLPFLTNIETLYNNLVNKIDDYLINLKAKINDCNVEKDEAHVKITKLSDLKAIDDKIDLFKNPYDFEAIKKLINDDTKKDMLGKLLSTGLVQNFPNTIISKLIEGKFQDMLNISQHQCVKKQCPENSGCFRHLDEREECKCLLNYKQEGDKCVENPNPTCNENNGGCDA
The assay can be described thus: far-Western, overlay or dot blot; 1-5 µg recombinant protein separated by SDS-PAGE, blotted, denatured and renatured; membrane incubated with 2 µg/mL purified GLURP R2, Pfs38 or SERA-5 in 100 mM NaCl, 20 mM Tris pH 7.6, 0.5 mM EDTA, 10% glycerol, 1 mM DTT, 2 h at RT; detected with antisera to the soluble protein. The note with it: both partners purified.

In assay [2] the target is B1. The assay can be described thus: SPR; BIACORE 2000, 37 °C, HBS-EP buffer; GLURP R2 immobilised (up to 400 RU) on CM5 chip; Pfs38 injected at increasing concentrations, 20 µL/min; 1:1 Langmuir fit. Particulars: both partners purified.

In the case of B1, the binding result in assay [1] is “binds”.

B2: recombinant GLURP R2 (domain or fragment)
chain: DGPVPSKPFEEIEKVDVQPKIVDLQIIEPNFVDSQPNPQEPVEPSFVKIEKVPSEENKHASVDPEVKEKENVSEVVEEKQNSQESVEEIPVNEDEFEDVHTEQLDLDHKTVDPEIVEVEEIPSELHENEVAHPEIVEIEEVFPEPNQNNEFQEINEDDKSAHIQHEIVEVEEILPEDDKNEKVEHEIVEVEEILPEDKNEKGQHEIVEVEEILPEDDKNEKVEHEIVEVEEILPEDKNEKGQHEIVEVEEILPEDKNEKVEHEIVEVEEILPEDKNEKGQHEIVEVEEILPEDKNEKVQHEIVEVEEILPEDKNEKGQHEIVEVEEILPEEDKNEKGQHEIVEVEEILPEDKNEKVQHEIVEVEEILPEDKNEKVQHEIVEVEEILPEIVEIEEVPSQTNNNENIETIKPEEKKNEFSVEEKAIPQEPVVPTLNENENVTPKPSEGESTKPDIVQIKIVQENKPNKKETPVVDG
modifications: Limits are not printed. The conventional GLURP R2 fragment (705-1178, F32 strain, 1271-aa GLURP) is assumed. The 3D7 orthologue is Q8IJ56.
Regarding B2, in assay [2], the Kd is 0.026 µM.

Broadly, the Kd is the concentration at which binding is half-saturated.
